The numbers were not newly measured in US9737089B2, “Milk-based nutritional compositions containing lactoferrin and uses thereof” (Mead Johnson Nutrition Company, priority 2012, dated 2017), which cites them from elsewhere.

The test system of the series is EPEC adhesion to HeLa cells. Conditions: Nascimento de Arujao et al., BMC Microbiol. 1:25 (2001).

B1: human lactoferrin: iron-binding glycoprotein, one of the major multifunctional agents present in human milk (protein, UniProt P02788 20-710, looked up)
Lactotransferrin: GRRRSVQWCAVSQPEATKCFQWQRNMRKVRGPPVSCIKRDSPIQCIQAIAENRADAVTLDGGFIYEAGLAPYKLRPVAAEVYGTERQPRTHYYAVAVVKKGGSFQLNELQGLKSCHTGLRRTAGWNVPIGTLRPFLNWTGPPEPIEAAVARFFSASCVPGADKGQFPNLCRLCAGTGENKCAFSSQEPYFSYSGAFKCLRDGAGDVAFIRESTVFEDLSDEAERDEYELLCPDNTRKPVDKFKDCHLARVPSHAVVARSVNGKEDAIWNLLRQAQEKFGKDKSPKFQLFGSPSGQKDLLFKDSAIGFSRVPPRIDSGLYLGSGYFTAIQNLRKSEEEVAARRARVVWCAVGEQELRKCNQWSGLSEGSVTCSSASTTEDCIALVLKGEADAMSLDGGYVYTAGKCGLVPVLAENYKSQQSSDPDPNCVDRPVEGYLAVAVVRRSDTSLTWNSVKGKKSCHTAVDRTAGWNIPMGLLFNQTGSCKFDEYFSQSCAPGSDPRSNLCALCIGDEQGENKCVPNSNERYYGYTGAFRCLAENAGDVAFVKDVTVLQNTDGNNNEAWAKDLKLADFALLCLDGKRKPVTEARSCHLAMAPNHAVVSRMDKVERLKQVLLHQQAKFGRNGSDCPDKFCLFQSETKNLLFNDNTECLARLHGKTTYEKYLGPQYVAGITNLKKCSTSPLLEACEFLRK
As to B1, the “inhibition of adhesion of EPEC to HeLa cells” value is recorded as “can inhibit the adhesion”.
